Common to all, as to assay: cell-based or functional assay
In test [1] the target is recombinant human cathepsin L (human, UniProt P07711 18-333).
Test [2] has as its target recombinant human cathepsin S (human, UniProt P25774 17-331).
The target of another test is T1, purified papain (UniProt P00784 134-345).
T1 sequence (looked up): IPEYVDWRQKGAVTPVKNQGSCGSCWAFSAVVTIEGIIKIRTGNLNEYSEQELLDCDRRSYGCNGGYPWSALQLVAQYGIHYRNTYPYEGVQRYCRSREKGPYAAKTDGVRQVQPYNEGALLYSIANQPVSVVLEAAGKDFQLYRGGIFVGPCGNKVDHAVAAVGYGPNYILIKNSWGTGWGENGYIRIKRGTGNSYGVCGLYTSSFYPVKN

For test [3], the target named is purified bovine cathepsin C (bovine).
Chain of purified bovine cathepsin C (bovine) (Q3ZCJ8 25-463): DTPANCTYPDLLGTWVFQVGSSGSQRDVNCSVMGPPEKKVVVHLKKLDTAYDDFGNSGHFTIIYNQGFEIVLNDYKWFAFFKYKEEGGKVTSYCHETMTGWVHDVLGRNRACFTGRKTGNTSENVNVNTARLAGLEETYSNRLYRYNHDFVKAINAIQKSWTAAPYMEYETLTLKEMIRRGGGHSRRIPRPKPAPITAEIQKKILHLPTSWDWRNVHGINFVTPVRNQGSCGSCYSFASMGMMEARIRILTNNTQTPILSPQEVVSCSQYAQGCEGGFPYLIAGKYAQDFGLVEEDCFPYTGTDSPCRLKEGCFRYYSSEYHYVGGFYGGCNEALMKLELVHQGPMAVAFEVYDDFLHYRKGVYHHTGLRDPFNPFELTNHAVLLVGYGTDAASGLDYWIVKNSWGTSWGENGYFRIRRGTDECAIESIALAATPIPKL

Chain of recombinant human cathepsin L (P07711 18-333): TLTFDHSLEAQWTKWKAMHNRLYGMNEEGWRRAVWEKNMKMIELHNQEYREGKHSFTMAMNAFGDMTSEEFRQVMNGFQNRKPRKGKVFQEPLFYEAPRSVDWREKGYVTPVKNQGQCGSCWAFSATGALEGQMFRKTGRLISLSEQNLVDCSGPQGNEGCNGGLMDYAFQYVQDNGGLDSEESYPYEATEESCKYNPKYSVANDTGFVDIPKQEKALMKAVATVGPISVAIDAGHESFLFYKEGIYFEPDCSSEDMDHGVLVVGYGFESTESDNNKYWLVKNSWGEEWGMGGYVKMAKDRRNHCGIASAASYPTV
Chain of recombinant human cathepsin S (P25774 17-331): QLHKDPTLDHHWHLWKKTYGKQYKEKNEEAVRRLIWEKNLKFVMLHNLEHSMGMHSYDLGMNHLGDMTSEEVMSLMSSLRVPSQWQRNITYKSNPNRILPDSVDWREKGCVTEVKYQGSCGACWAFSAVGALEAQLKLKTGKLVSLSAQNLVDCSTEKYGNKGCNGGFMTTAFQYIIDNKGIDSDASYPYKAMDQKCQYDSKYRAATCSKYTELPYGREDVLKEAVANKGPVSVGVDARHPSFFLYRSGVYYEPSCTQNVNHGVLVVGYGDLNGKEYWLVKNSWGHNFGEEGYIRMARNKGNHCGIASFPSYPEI

B1: sialostatin L (natural protein)
chain: TGVFGGYSERANHQANPEFLNLAHYATSTWSAQQPGKTHFDTVAEVVKVETQVVAGTNYRLTLKVAESTCELTSTYNKDTCLPKADAAHRTCTTVVFENLQGDKSVSPFECEAA
Regarding B1, the “IC50 of inhibition of enzyme activity (fluorogenic substrate)” value in test [1] stood at 1.6 nM; in test [2], 0.2 nM; with purified papain it was 0.5 nM; in test [3], 160 nM.

B2: sialostatin L2 (natural protein)
chain: MELALRGGYRERSNQDDPEYLELAHYATSTWSAQQPGKTHFDTVVEVLKVETQTVAGTNYRLTLKVAESTCELTSTYNKDTCQANANAAQRTCTTVIYRNLQGEKSISSFECAAA
Consider B2, for which the “IC50 of inhibition of enzyme activity (fluorogenic substrate)” value was found to be 1.1 nM in test [1], 114 nM in test [2], 0.4 nM with purified papain and 4720 nM in test [3].

For the origin of these results see publication PMC2909360 (Molecular microbiology, 2010).
